T1: recombinant PCI (with Flag tag) (UniProt P05154)
T1 sequence: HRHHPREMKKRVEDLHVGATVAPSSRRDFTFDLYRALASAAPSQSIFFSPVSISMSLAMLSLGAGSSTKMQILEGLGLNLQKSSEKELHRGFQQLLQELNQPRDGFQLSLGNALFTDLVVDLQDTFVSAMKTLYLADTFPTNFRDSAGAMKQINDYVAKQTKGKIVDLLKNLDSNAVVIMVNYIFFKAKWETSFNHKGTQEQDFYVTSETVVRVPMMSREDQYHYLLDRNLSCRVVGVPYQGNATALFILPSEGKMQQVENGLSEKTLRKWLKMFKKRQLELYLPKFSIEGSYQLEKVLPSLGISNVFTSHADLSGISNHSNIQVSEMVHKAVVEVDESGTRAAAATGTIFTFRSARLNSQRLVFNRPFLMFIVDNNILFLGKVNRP


Key:
[1] = target: T1, recombinant PCI (with Flag tag)
[2] = target: activated protein C (aPC; protein C from human plasma, activated, SIGMA P-2200) (human, UniProt P04070 43-461); assay: cell-based or functional assay
Sequence of activated protein C (aPC; protein C from human plasma, activated, SIGMA P-2200) (P04070 43-461): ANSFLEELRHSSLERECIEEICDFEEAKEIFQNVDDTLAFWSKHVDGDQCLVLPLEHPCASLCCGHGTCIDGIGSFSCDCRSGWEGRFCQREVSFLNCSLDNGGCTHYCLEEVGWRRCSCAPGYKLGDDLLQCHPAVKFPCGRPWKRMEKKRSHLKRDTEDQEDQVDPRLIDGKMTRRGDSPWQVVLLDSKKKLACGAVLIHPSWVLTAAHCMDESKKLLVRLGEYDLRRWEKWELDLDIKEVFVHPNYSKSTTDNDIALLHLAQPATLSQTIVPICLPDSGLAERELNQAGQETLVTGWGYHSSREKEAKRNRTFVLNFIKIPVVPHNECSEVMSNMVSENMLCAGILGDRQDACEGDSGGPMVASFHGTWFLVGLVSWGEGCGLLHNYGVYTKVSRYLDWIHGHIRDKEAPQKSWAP

| Molecule | …ON SUPPRESSION RATE (%), EXPERIMENT 1 (APTT coagulation time, human plasma) [2] [%] | …ON SUPPRESSION RATE (%), EXPERIMENT 2 (APTT coagulation time, human plasma) [2] [%] | absorbance (at 405 nm), substrate S-2366; CONTROL (aPC with PCI, no antibody), AVERAGE (absorbance at 405 nm) [1] | absorbance (at 405 nm), substrate S-2366; CONTROL (aPC with PCI, no antibody), first replicate (absorbance at 405 nm) [1] | absorbance (at 405 nm), substrate S-2366; CONTROL (aPC with PCI, no antibody), second replicate (absorbance at 405 nm) [1] |
| --- | --- | --- | --- | --- | --- |
| activated protein C (aPC; protein C from human plasma, activated, SIGMA P-2200) |  |  | 0.262 | 0.278 | 0.245 |
| anti-aPC antibody aPC#79 (hybridoma well No. 79) (antibody, IgG2b, V domains shown) VH: QVQLQQSGAELARPGASVKLSCKASGYTFTDSYMNWVKQRTGQGLEWIGEVYPETGNSYYNEKFKGKATLTADRSSKTAYMQLNSLTSEDSAVYFCTRGGTGFDYWGQGTTLTVSS VL: QIVLAQSPAIMSASLGERVTMTCTASSSVSSSYLHWYQQKPGSSPKAWIYSTSNLASGAPTRFSGSGSGTSYSLTISSMEAEDAATYYCHQYHRSPFTFGSGTKLEIK | 88 | 68.3 |  |  |  |

Now from value to molecule, other results behind:

| …ON SUPPRESSION RATE (%), EXPERIMENT 1 (APTT coagulation time, human plasma) [2] [%] | …ON SUPPRESSION RATE (%), EXPERIMENT 2 (APTT coagulation time, human plasma) [2] [%] | Molecule | absorbance (at 405 nm), substrate S-2366; CONTROL (aPC with PCI, no antibody), AVERAGE (absorbance at 405 nm) [1] | absorbance (at 405 nm), substrate S-2366; CONTROL (aPC with PCI, no antibody), first replicate (absorbance at 405 nm) [1] | absorbance (at 405 nm), substrate S-2366; CONTROL (aPC with PCI, no antibody), second replicate (absorbance at 405 nm) [1] |
| --- | --- | --- | --- | --- | --- |
| 23.4 | 20.7 | anti-aPC antibody aPC#123 (hybridoma well No. 123) (antibody, IgG2b, V domains shown) VH: QVQLQQSGPELVKPGASVKISCKASGYAFSSSWMNWVKQRPGQGLEWIGRIYPGDGDTNYNGKFRGKATLTADKSSSTAYMQLTSLTSVDSAVYFCARWGITTAAWFAYWGQGTLVTVSA VL: DIQMTQSPASLSASVGETVTITCRTSENIYSYLAWYQQKQGKSPQLLVNNAKTLAEGVPSRFSGSGSGTQFSLKINSLQPEDFGTYYCQHYYGTPPTFGGGTKLEIK |  |  |  |
| 24.5 | 28.2 | anti-aPC antibody aPC#285 (hybridoma well No. 285) (antibody, IgG1, V domains shown) VH: QVQLQQSGSEVVKPGASVKISCKASGYAFSRSWMNWVKQRPGQGLEWIGRIYPGDGDSIYNGKFKGKATLTADKSSTTAYMHLNSLTSVDSAVYFCARWGSSGSSWFAYWGQGTLVTVSA VL: DIQMTQSPASLSASMGETVTITCRTSENIYSYLAWYRQKQGKSPQLLVYNAKTLAEGVPSRFSGSGSGTQFSLRINSLQPEDFGSYFCQHYYGSPYTFGGGTKLEIK |  |  |  |
| 33.8 | 21.6 | anti-aPC antibody aPC#281 (hybridoma well No. 281) (antibody, IgG1, V domains shown) VH: QIQLVQSGPELEKPGETVRISCKASGYTFTDYSLHWVKQAPGKGLKWMGWINTETGEPTYADDLKGRFAFSLETSATTAYLQINNLKNEDTATYFCARGITLDYWGQGTSLTVSS VL: DNVMSQSPSSLAVSVGEKVTMSCKSSQSLLSSSNQKNFLAWYQQKPGQSPKLLISWASTRHSGVPDRFTGSGSGTDFTLTISSVNAEDLAVYYCQQYYRYPLTFGAGTKLELK |  |  |  |

From patent US20060121022A1 (Chugai, published 2006)
